From paper PMC10249358 (2023)
Like-named read-outs stand apart in the source and are kept apart here. No end group written: not given here. *: point of attachment. FITC = O=C1OC2(c3ccc(O)cc3Oc3cc(O)ccc32)c2ccc(NC(=S)*)cc21

T1: radixin FERM domain (as used in FP) (human, UniProt P35241 5-295)
T1 chain: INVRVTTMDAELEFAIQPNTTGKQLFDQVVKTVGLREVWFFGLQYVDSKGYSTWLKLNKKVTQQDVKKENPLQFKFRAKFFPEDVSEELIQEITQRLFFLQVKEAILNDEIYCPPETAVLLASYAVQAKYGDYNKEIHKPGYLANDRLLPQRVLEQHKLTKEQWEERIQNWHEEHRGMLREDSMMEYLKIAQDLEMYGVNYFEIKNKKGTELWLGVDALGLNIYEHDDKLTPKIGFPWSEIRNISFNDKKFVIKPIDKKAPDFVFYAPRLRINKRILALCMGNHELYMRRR

T2: merlin FERM domain (human, UniProt P35240 22-312)
T2 chain: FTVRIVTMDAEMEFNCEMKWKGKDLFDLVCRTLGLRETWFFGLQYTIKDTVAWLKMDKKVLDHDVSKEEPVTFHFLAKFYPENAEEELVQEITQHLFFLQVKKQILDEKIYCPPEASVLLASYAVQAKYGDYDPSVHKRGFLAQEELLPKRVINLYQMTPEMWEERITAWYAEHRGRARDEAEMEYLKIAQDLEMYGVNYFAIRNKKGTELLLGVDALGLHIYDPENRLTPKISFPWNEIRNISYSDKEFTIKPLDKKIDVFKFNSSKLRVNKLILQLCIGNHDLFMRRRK


Assays:
Assay in all cases: FP
[1] = biological target: T1, radixin FERM domain (as used in FP)
merlin FERM domain = biological target: T2, merlin FERM domain
[2] = biological target: ezrin FERM domain (as used in FP) (UniProt P15311 2-296)
Chain of ezrin FERM domain (as used in FP) (P15311 2-296): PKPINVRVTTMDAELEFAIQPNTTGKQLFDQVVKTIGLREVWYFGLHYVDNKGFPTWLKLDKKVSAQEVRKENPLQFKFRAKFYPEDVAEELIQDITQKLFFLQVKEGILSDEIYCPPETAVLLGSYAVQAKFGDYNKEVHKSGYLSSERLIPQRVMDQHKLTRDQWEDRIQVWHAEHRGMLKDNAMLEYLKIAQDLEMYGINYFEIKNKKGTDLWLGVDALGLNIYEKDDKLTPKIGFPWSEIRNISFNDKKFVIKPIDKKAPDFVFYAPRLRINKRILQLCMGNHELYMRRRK

moesin FERM domain [3] = biological target: T3, moesin FERM domain (UniProt P26038 2-295)
moesin FERM domain [4] = biological target: T3, moesin FERM domain; remark: listed apart in the source
moesin FERM domain [5] = biological target: T3, moesin FERM domain; remark: listed apart in the source

Row | Binder | Kd [1] [nM] | Kd (merlin FERM domain) [nM] | Kd [2] [nM] | Kd (moesin FERM domain [3]) [nM] | Kd (moesin FERM domain [4]) [nM] | Kd (moesin FERM domain [5]) [nM]
1 | {FITC}-THHKALQEIRNSLLPF [FITC-LATS1(73–88) peptide] | 1700 | 8500 | 1200 | 1000 |  | 
2 | LEFADFYDFRSSYPDH [ZNF622(341–356) peptide, unlabeled] |  |  |  |  | 1400 | 
3 | YYSVNTFKEHHSTPTI [KIRREL3(637–652) peptide, unlabeled] |  |  |  |  |  | 90
4 | TNGYYSVNTFKEHHSTPTI [KIRREL3(634–652) peptide, unlabeled, N-terminally extended] |  |  |  |  |  | 120
5 | {FITC}-WSKKNELFSNL [FITC-EBP50(348–358) peptide] | 3200 | 1800 | 3200 | 3000 |  | 
6 | {FITC}-YYSVNTFKEHHSTPTI [FITC-KIRREL3(637–652) peptide] | 1400 |  | 1400 | 80 |  | 
7 | {FITC}-LEFADFYDFRSSYPDH [FITC-ZNF622(341–356) peptide] | 2500 | 4100 | 1600 | 1000 |  | 
8 | SYSVQTMETVPYQPFP [TBX4(428–443) peptide, unlabeled] |  |  |  |  |  | 1000
9 | PYTSYSVQTMETVPYQPFP [TBX4 peptide extended N-terminally with PYT] |  |  |  |  |  | 3200
10 | SYSVQTMETVPYQPFP (also: FITC label, position not given here) [FITC-TBX4(428–443) peptide] | 4600 |  | 4500 | 750 |  | 
11 | FYDLWASDNPLDRPLV (also: FITC label, position not given here) [FITC-NOP53(192–207) peptide] | 3500 | 17000 | 2400 | 710 |  | 
